As usually defined, the koff is the first-order rate constant of dissociation. Lower therefore signals slow dissociation.

From article PMC9907810 (2023) come the findings set out here.

The assay addresses SARS-CoV-2 receptor-binding domain (RBD), prototype (Wuhan-Hu-1), Avi-tagged and biotinylated (SARS-CoV-2). Briefly: BLI. In general terms: Biolayer interferometry detects binding as a change in optical thickness at a sensor tip.

B1: Ab08 single-chain fragment variable (scFv) (scFv, V domains shown)
VH: QVQLVQSGAEVKKPGSSVKVSCKASGGTFSSYTISWVRQAPGQGLEWMGGIIPILGTTNYAQKFQGRVTITADESTSTAYMELSSLRSEDTAVYYCARKFGYSGYGATWYFDLWGRGTLVTVSS
VL: QSVLTQPPSVSGAPGQRVTISCTGNSSNIGAGYDVHWYQQFPGTAPKLLIYGNSNRPSGVPDRFSGSKSGTSASLAITGLQAEDEADYYCQSYDSSLSGSVFGGGTKLTVL
For B1, the dissociation rate constant (koff) was found to be 7.5e-05 s⁻¹.
